Experiment: soluble on expression in E. coli; label from the status in PepcDB or PDB records

Row | Sequence | soluble on expression in E. coli
1 | MTSGGNSIEPSVVAEAEKMLFCYQYDQTITISITSSADPCPLCNGGFLDEYVDPNPNPIPNLILPMSDPISSRFSFIPVMDFTNPSFLGESMEPQSTQQQLNAFDPNQLSDQANPLAGNHGDYFFGRGLEDLI | not soluble
2 | MSNISTPQPRIGFVSLGCPKNLVDSERILTELRTEGYQVVPRYDDAELVIVNTCGFIDSAVQESLEAIGEALNENGKVIVTGCLGAKENQIREVHPKVLEITGPHSYEQVLSHVHQYVPKPTHNPFTSLVPEQGVKLTPRHYAYLKISEGLEHHHHHH | soluble
3 | MATIGLDRLYYAKITENENGEETYATPVPLAKAITAELSVELAEATLYADDGAAEVVKEFQSGTLTLGVADIGVDAAEVLTGATLDDNKVLISTSEDGGAPVAIGFRAKKANGKYRYFWLYRVKFGIPATNLQTKGDSITFSTPTIEGTVMRRNKPDGLEHHHHHH | soluble
4 | MGSDKIHHHHHHMKKQPSATVNQEKESELIEGLMSNDDLAYETLVRQYSAKMYAVARRFFCTNDDAQECLQKAFIQVFKNITSFKQNSNLSTWLHRITVNEALMMLRQRKRQNTTSLEEFAQHYNEYGERTVFADNLGNNLNNNLGTILGGNVETLFEKTETKLSLNDIIFQLPEKYCNVLLLRDIQEISTKETAEILAISESLVKTQLHRARLLLKAILEQDDKDNLESNWKVNSHVND | not soluble
5 | MSLDLKFTDFLDPRVKSSLGEEEIVFPPYDANQLRDILQHRSDVAFKADALSDDVLPLCAAFAAQEHGDARRALDLLRTAGELAERDQAENVTEDHVRRAQDKIELDRVVEVVRTLPTQSKLVLYAILLLEDNGVHNVNTGEVYNIYKTLCDELDADVEGHHHHHH | soluble
6 | SNILEKVVLKVLEDQQNIRLIRELLQTLYTSLCTLVQRVGKSVLVGNINMWVYRMETILHWQQQLNNIQITRPAFKGLTFTDLPLCLQLNIMQRLSDGRDLVSLGQAAPDLHVLSEDRLLWKKLCQYHFSERQIRKRLILSDKGQLDWKKMYFKLVRCYPRKEQYGDTLQLRKHCHILSWKGTDHPCTANNPESCSVSLSPQDFINLFKF | not soluble
7 | MESVAAESAPAPENEHSQETPESNSSVYTTFMKSHRCYDLIPTSSKLVVFDTSLQVKKAFFALVTNGVRAAPLWDSKKQSFVGMLTITDFINILHRYYKSALVQIYELEEHKIETWREVYLQDSFKPLVCISPNASLFDAVSSLIRNKIHRLPVIDPESGNTLYILTHKRILKFLKLFITEFPKPEFMSKSLEELQIGTYANIAMVRTTTPVYVALGIFVQHRVSALPVVDEKGRVVDIYSKFDVINLAAEKTYNNLDVSVTKALQHRSHYFEGVLKCYLHETLEAIINRLVEAEVHRLVVVDEHDVVKGIVSLSDILQALVLTGGEKKP | soluble
8 | MEEFVNPCKIKVIGVGGGGSNAVNRMYEDGIEGVELYAINTDVQHLSTLKVPNKIQIGEKVTRGLGAGAKPEVGEEAALEDIDKIKEILRDTDMVFISAGLGGGTGTGAAPVIAKTAKEMGILTVAVATLPFRFEGPRKMEKALKGLEKLKESSDAYIVIHNDKIKELSNRTLTIKDAFKEVDSVLSKAVRGITSIVVTPAVINVDFADVRTTLEEGGLSIIGMGEGRGDEKADIAVEKAVTSPLLEGNTIEGARRLLVTIWTSEDIPYDIVDEVMERIHSKVHPEAEIIFGAVLEPQEQDFIRVAIVATDFPEEKFQVGEKEVKFKVIKKLHHHHHH | soluble
9 | MNITKTLCLCAALSGAAGVQAMENREFVTQQDNTRVNNYQTNRPEASKRLFVSQEVERQIDHIKQLLTNAKLAWMFENCFPNTLDTTVHFDGKEDTFVYTGDIHAMWLRDSGAQVWPYVQLANKDPELKKMLAGVINRQFKCINIDPYANAFNMNSEGGEWMSDLTDMKPELHERKWEIDSLCYPIRLAYHYWKTTGDASVFSDEWLQAIANVLKTFKEQQRKDDAKGPYRFQRKTERALDTMTNDGWGNPVKPVGLIASAFRPSDDATTFQFLVPSNFFAVTSLRKAAEILNTVNRKPALAKECTALADEVEKALKKYAVCNHPKYGKIYAFEVDGFGNQLLMDDANVPSLIALPYLGDVKVTDPIYQNTRKFVWSEDNPYFFKGSAGEGIGGPHIGYDMIWPMSIMMKAFTSQNDAEIKTCIKMLMDTDAGTGFMHESFNKNDPKNFTRAWFAWQNTLFGELILKLVNEGKVDLLNSIQLEHHHHHH | soluble
10 | MKILITGGSGLVGRQLTKSLQAQNIEVTWLSRTKGVKDGIKSFLWDYKKGYIEEEAFDGVTHIVHLAGAGVFDKRWTKSYKKEIFDSRILTTKLLVEKALKLNGLEAFISGSAIGIYGNSMNSVPLTETALYGNDYLAQVTKEWEAATVPLENSSIRLAIIRTGIVLSEHGGALPAMINPIKAYIGSPLASGEQIISWIHIDDLCRIFSKAITDDAIKGTYNGVAPEPVTNKVLTQTAAAILHKPLVMPNVPSFALNILLGKEKAASVVEGIAVSAEKISATGFTFTYPYIKKALSDLLLEHHHHHH | not soluble
11 | MADILLLDNVDSFTYNLVDQLRASGHQVVIYRNQIGAEVIIERLQHMEQPVLMLSPGPGTPSEAGCMPELLQRLRGQLPIIGICLGHQAIVEAYGGQVGQAGEILHGKASAIAHDGEGMFAGMANPLPVARYHSLVGSNIPADLTVNARFGEMVMAVRDDRRRVCGFQFHPESILTTHGARLLEQTLAWALAK | soluble
12 | GPGSMSETIPVSVQCCEGRFELSVDSNHTLRDVLRQFKREVAALDPINLEEYVVNHEGKLLLDDSVTLQTVGVKKDSVFVLVRKACCPAASPEKDEDDM | soluble
13 | MGSDKIHHHHHHMNLKHIEAFRAVMVSGSMTAAAKALFTSQPNVSRLIAQLERDTGLQLFQRSGVRLIPTSEGEAFFREVERAFVGLQGLANAAAQIRNLGSGRLRIAAMPSAGMTLVPHAIKRFVELFPDVTVSLHVNTSGTVNHWTASQFCDLGVAVYVSEASDCEVEQLSDLAAVCVMPAAHRLAAKRSIKPEDLEGESFISLCHGDGTRALMDEVFQRAGVQRVMAIEAQYTAMCCEMVRHGMGVTLAHPIVARDFAGPDIAIRPFLPATRFQTYLLFPPHRPRERLASAFVEVLRELHDELLAEVVVPTPSVGRRRVVRSASKG | not soluble
14 | GSGSAMIEARQVSELSTRIISSVQMLSNAQNEQERKEAGRVLFEQLESLLTHIKELGGESFDSKLLDALESNVQNVINNLAELGVTVERKLWLAKEIDTRVEEMRLLSEELEQLTRTQVQNTSTIAVANVTHIYDLLEANKKDQVYQALDALVEVDLDLTERLHELHLLAFKMLNQIEEARTLTNVDRIQQIQTAFENNLKIMKRRVLAVEDPTRSKQMSQLLTELGKRQVVFTILLQQYENNEQSQQLMQKTLELFSELNSTVNKLVDDSNKTTT | soluble
15 | MDIPQDSYDLVVVGGGTSGVFAAISAARRGLRVALVEASGMLGGTLTQVTLGGICGAWTGTAHTQVVHGLFDEFVHAMRKAQACDGLYSYGHVTALPYEPVKVRYLLDQLLPPNVTAFFHSRLFAVDMEGERIARVHLAGVEGPFSLAARAYVDATGNASLVGLCATPLRRGENGTVQAASSMFRVIGADVDPRVRDVRTEIRLAIEKHNASGQAEAFKRSAVAVYVHPDQRLLHFNATRVYFESTADDALAAALDMSRVETEARKESFRLVELLKREVDGFANIEIVDLGSSVGVRDSRNIVNDHPLTEAMVRDGDKPANSVAYSAWPIEFHGSNTQTHWEPLEGDRYYGIPYESCLPQGIQNALVIGRAISSTPLAQASCRVTAPCIQMGESAGIAAHELVASSSRTAFSELASMKFILEHHHHHH | soluble
16 | MTRKPLTLTGSALAVLRALVERGPSTRPQLGQDLGLSRPTMSAAMAELMEAGLVEPIGSVQGGMGRRAVEYRVATHAGHVIAVDAGSTHIRLRLSTLDRRLLHASLHPLPNSQYSLTPQISSVVADAVAEALEKTEVDWGPLLAMVIAIPTRVVGPEGDTAATDQEVIFTNFTPPPQVDCTLVNNVNCAAVAEYHYGAARGHQTFAFLQVGVKIGLGLMLNGQILPGVNGAAGEIGHITFPFAPGLTPVPGEAERYIGTEAFMARVRADWPKGSGRPPADTYELLARAGEGDAAALRHVEGHAAEIGAVIAICVSVIDPGLVVLGGGYGASPLLRPKVEEVVRHLAFPAEITTSTLAAEATVLGAERLAVDRAVSVLLGLPA | not soluble
17 | GHMSDLVTKFESLIISKYPVSFTKEQSAQAAQWESVLKSGQIQPHLDQLNLVLRDNTFIVSTLYPTSTDVHVFEVALPLIKDLVASSKDVKSTYTTYRHILRWIDYMQNLLEVSSTDKLEINHD | soluble
18 | MKPRPQSDAVDNEGPTPLSKGRRHLAMRLDDAWLGFQTRLAIRRGRVETVIPYTGYGSTSWVRVLARIVRSDPRDAAGHTNPLQESMRGWRNFTSAPVAHASVQVTIDGTVHDVVADRGGVVDARIPVALDAGWHTITLRSGESETVEAPVEIVADDAVFGVVSDIDDTVMVTALPRPFLAAWNTFVLNEHARTPTPGMAVLYERIARTAPSAPVLYLSTGAWNVAPTLSRFLSRNLYPAGPKLLTDWGPTPDRWFRSGQEHKRTSLERLAEEFPNIKWLLVGDDGQHDEAIYSEFAQRHPASVRAIAIRQLSAGEAVLAGGRSKSGGQPTPGVPWIYAPDGAGMSAQLEELGIIRNEVRSADDPEEGEVTTGSDLEHHHHHH | soluble
19 | MKVLTVVIPCYNSAEYMDRAIESLLIGDEELEILIVNDGSMDNTSIIADEYEKKYPNTIRVIHKENGGHGDAINTGLKHSKGVYFKVLDSDDWFDKASLKKVLEVLKNMIKDSKSLDMLISNYVYENFSINKSRSINYKGAMPKEKIFTWDSLGHLKSSQNILMHSVIYRTELLRECNLDLPKHTFYVDNIFVYKPLPYVKTMYYLDVDLYRYFIGREDQSVNEKVMIKRIDQQIKVTKILIDCYNPMLLNCKKLRKYMVKYLVMMMTVSTVLLIKDNTEQSLNKKRELWSYLHSKNRKLYFEVNKSFLGLLIQIKGFVGRKIILLGYSLSRKVFGFNLEHHHHHH | not soluble
20 | NIDSNKKILQEIKRYADEHEERYGRFPKTLIFAVQDLANSSSHADQIVDQARDIFGRGDSFVQKITGKVDRPLQRIREFRNRKEPGIAVTVDLLSTGVDVPDIEYIVFLRSMKSRILFEQMIGRGTRKGEH | not soluble
21 | MKILGISGSPRKEGTHFAVNYALDYLKEKGFETKYISVFQKKIEFCIHCDYCLRTKEGCVHKDSMQEIYNGLKWADAVILGSPCYNGTVSGQLKTIMDRCRAIFAEDIDVLRNKYGMALSVGGDRNGGQEVVLKTIHDFYILNGVIPVSGGSFGSNLGATFWSQDNGKKGVEEDTEGIRTLKRTLKKFYNCLNEEGELEHHHHHH | not soluble
22 | MIKISTRFDAGSVVVKDLTDPSNIRLALRPDNASDFAQWFYFRLQGAAYQNCIMHFENAAEAAYPKGWEGYQACASYDRRNWFRVPTSYENGVLTVNHTPLSNSVYYAYFEPYSEEQHLNLLGDAQGSGLCRIDDLGSTVQGRDINLLTIGNQVESDLKIWITARQHPGETMAEWFIEGLLGRLLDPQDPTARALLDRATFYIVPNMNPDGSALGNLRTNAAGANLNREWENPTVEKSPEVFFVREKMLETGVDLFLDIHGDEGLPFVFVAGTEGVPNYNPRIAALEAQFKNALLNASPDFQDEYGYEKDAPGEANMTLATNWVGNRFNCLAYTLEMPFKDNANLPDDDFGWNGQRSLRLGEAALSAILNVIGDLR | not soluble
23 | MSELPPLNTDTIWGILNDQIDDATVMQLVWYYLGYRYDATTEKWDNNAVPSEWRDEYPEPPNFLESRPATMKLTRSIPKQYKQITKEKLGFKGYKIGTFTPRETRRATSANWLLSYLQQQIDQGK | soluble
